Results published in US20210388087A1 (Chugai, published 2021).
Changes are numbered by the printed parent chain. Numbers in names are those of the source.

B1: H183/L072 VH G100hA (antibody, name in Kabat numbering, V domains shown)
VH: QVQLVESGGGLVQPGRSLRLSCAASGFTFSNAWMHWVRQAPGKGLEWVAQIKDKGNAYAAYYAPSVKGRFTISRDDSKNSIYLQMNSLKTEDTAVYYCHYVHYASASTVLPAFAVDAWGQGTTVTVSS
VL: DIVMTQSPLSLPVTPGEPASISCQASQELVHMNRNTYLHWYQQKPGQAPRLLIYKVSNRFPGVPDRFSGSGSGTDFTLKISRVEAEDVGVYYCAQGTSVPFTFGQGTKLEIK
B2: H183/L072 VH I51A (antibody, name in Kabat numbering, V domains shown)
VH: B1 VH with I51A, A114G
VL: B1 VL
B3: H183/L072 VH H96M (antibody, name in Kabat numbering, V domains shown)
VH: B1 VH with H102M, A114G
VL: B1 VL
B4: H183/L072 VH H96L (antibody, name in Kabat numbering, V domains shown)
VH: B1 VH with H102L, A114G
VL: B1 VL
B5: H183/L072 VH K52bH (antibody, name in Kabat numbering, V domains shown)
VH: B1 VH with K54H, A114G
VL: B1 VL
B6: H183/L072 VH K52bI (antibody, name in Kabat numbering, V domains shown)
VH: B1 VH with K54I, A114G
VL: B1 VL
B7: H183/L072 VH K52M (antibody, name in Kabat numbering, V domains shown)
VH: B1 VH with K52M, A114G
VL: B1 VL
B8: H183/L072 VH K52Q (antibody, name in Kabat numbering, V domains shown)
VH: B1 VH with K52Q, A114G
VL: B1 VL
B9: H183/L072 VH K52bA (antibody, name in Kabat numbering, V domains shown)
VH: B1 VH with K54A, A114G
VL: B1 VL
B10: H183/L072 VH I51Y (antibody, name in Kabat numbering, V domains shown)
VH: B1 VH with I51Y, A114G
VL: B1 VL
B11: H183/L072 VH H35N (antibody, name in Kabat numbering, V domains shown)
VH: B1 VH with H35N, A114G
VL: B1 VL
B12: H183/L072 VH K52bL (antibody, name in Kabat numbering, V domains shown)
VH: B1 VH with K54L, A114G
VL: B1 VL
B13: H183/L072 VH K52bF (antibody, name in Kabat numbering, V domains shown)
VH: B1 VH with K54F, A114G
VL: B1 VL
B14: H183/L072 VH H96P (antibody, name in Kabat numbering, V domains shown)
VH: B1 VH with H102P, A114G
VL: B1 VL
B15: H183/L072 VH I51M (antibody, name in Kabat numbering, V domains shown)
VH: B1 VH with I51M, A114G
VL: B1 VL
B16: H183/L072 VH H93A (antibody, name in Kabat numbering, V domains shown)
VH: B1 VH with H99A, A114G
VL: B1 VL
B17: H183/L072 VH I51L (antibody, name in Kabat numbering, V domains shown)
VH: B1 VH with I51L, A114G
VL: B1 VL
B18: H183/L072 VH K52R (antibody, name in Kabat numbering, V domains shown)
VH: B1 VH with K52R, A114G
VL: B1 VL
B19: H183/L072 VH K52L (antibody, name in Kabat numbering, V domains shown)
VH: B1 VH with K52L, A114G
VL: B1 VL
B20: H183/L072 VH K52N (antibody, name in Kabat numbering, V domains shown)
VH: B1 VH with K52N, A114G
VL: B1 VL
B21: H183/L072 VH I51S (antibody, name in Kabat numbering, V domains shown)
VH: B1 VH with I51S, A114G
VL: B1 VL
B22: H183/L072 VH H93I (antibody, name in Kabat numbering, V domains shown)
VH: B1 VH with H99I, A114G
VL: B1 VL
B23: H183/L072 VH I51G (antibody, name in Kabat numbering, V domains shown)
VH: B1 VH with I51G, A114G
VL: B1 VL
B24: H183/L072 VH K52bM (antibody, name in Kabat numbering, V domains shown)
VH: B1 VH with K54M, A114G
VL: B1 VL
B25: H183/L072 VH H93L (antibody, name in Kabat numbering, V domains shown)
VH: B1 VH with H99L, A114G
VL: B1 VL
B26: H183/L072 VH H96I (antibody, name in Kabat numbering, V domains shown)
VH: B1 VH with H102I, A114G
VL: B1 VL
B27: H183/L072 VH G100hL (antibody, name in Kabat numbering, V domains shown)
VH: B1 VH with A114L
VL: B1 VL
B28: H183/L072 VH H35Y (antibody, name in Kabat numbering, V domains shown)
VH: B1 VH with H35Y, A114G
VL: B1 VL
B29: H183/L072 VH I51V (antibody, name in Kabat numbering, V domains shown)
VH: B1 VH with I51V, A114G
VL: B1 VL
B30: H183/L072 VH H93M (antibody, name in Kabat numbering, V domains shown)
VH: B1 VH with H99M, A114G
VL: B1 VL
B31: H183/L072 VH H96A (antibody, name in Kabat numbering, V domains shown)
VH: B1 VH with H102A, A114G
VL: B1 VL
B32: H183/L072 VH K52bE (antibody, name in Kabat numbering, V domains shown)
VH: B1 VH with K54E, A114G
VL: B1 VL
B33: H183/L072 VH G100hI (antibody, name in Kabat numbering, V domains shown)
VH: B1 VH with A114I
VL: B1 VL
B34: H183/L072 VH I51N (antibody, name in Kabat numbering, V domains shown)
VH: B1 VH with I51N, A114G
VL: B1 VL
B35: H183/L072 VH H93P (antibody, name in Kabat numbering, V domains shown)
VH: B1 VH with H99P, A114G
VL: B1 VL
B36: H183/L072 VH I51K (antibody, name in Kabat numbering, V domains shown)
VH: B1 VH with I51K, A114G
VL: B1 VL
B37: H183/L072 VH G100hM (antibody, name in Kabat numbering, V domains shown)
VH: B1 VH with A114M
VL: B1 VL
B38: H183/L072 VH K52bN (antibody, name in Kabat numbering, V domains shown)
VH: B1 VH with K54N, A114G
VL: B1 VL
B39: H183/L072 VH K52Y (antibody, name in Kabat numbering, V domains shown)
VH: B1 VH with K52Y, A114G
VL: B1 VL
B40: H183/L072 VH H35T (antibody, name in Kabat numbering, V domains shown)
VH: B1 VH with H35T, A114G
VL: B1 VL
B41: H183/L072 VH H35V (antibody, name in Kabat numbering, V domains shown)
VH: B1 VH with H35V, A114G
VL: B1 VL
B42: H183/L072 VH H35F (antibody, name in Kabat numbering, V domains shown)
VH: B1 VH with H35F, A114G
VL: B1 VL
B43: H183/L072 VH I51T (antibody, name in Kabat numbering, V domains shown)
VH: B1 VH with I51T, A114G
VL: B1 VL
B44: H183/L072 VH K52bG (antibody, name in Kabat numbering, V domains shown)
VH: B1 VH with K54G, A114G
VL: B1 VL

Each binder was assayed against T1, Human CD137 ECD (human) (assay: single mutant vs template dBBDu183H).
T1 construct: also called 4-1BB
T1 sequence (chain, as listed by the source limits assumed): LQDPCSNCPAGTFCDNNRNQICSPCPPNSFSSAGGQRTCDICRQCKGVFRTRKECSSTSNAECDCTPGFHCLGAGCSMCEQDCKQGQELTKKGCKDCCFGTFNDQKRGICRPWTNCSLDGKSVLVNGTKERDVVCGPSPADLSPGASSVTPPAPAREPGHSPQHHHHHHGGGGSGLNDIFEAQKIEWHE

Binder | fold change of affinity
B1 | 0 fold
B2 | 0.1 fold
B3 | 1.4 fold
B4 | 0.8 fold
B5 | 0.7 fold
B6 | 0.8 fold
B7 | 0.3 fold
B8 | 0.3 fold
B9 | 1 fold
B10 | 0 fold
B11 | 0.4 fold
B12 | 0.5 fold
B13 | 0.7 fold
B14 | 0 fold
B15 | 0.2 fold
B16 | 0 fold
B17 | 0.1 fold
B18 | 0.2 fold
B19 | 0.1 fold
B20 | 0.2 fold
B21 | 0.4 fold
B22 | 0 fold

Binder | fold change of affinity
B23 | 0.1 fold
B24 | 0.6 fold
B25 | 0 fold
B26 | 0.5 fold
B27 | 0 fold
B28 | 3.9 fold
B29 | 1 fold
B30 | 0 fold
B31 | 0 fold
B32 | 0.5 fold
B33 | 0 fold
B34 | 0.2 fold
B35 | 0 fold
B36 | 0.1 fold
B37 | 0 fold
B38 | 0.2 fold
B39 | 0 fold
B40 | 0.5 fold
B41 | 0.5 fold
B42 | 4.3 fold
B43 | 0.3 fold
B44 | 0.9 fold
